In the nanobody polyreactivity screen of Harvey et al. (2022):

assay: yeast display, Sf9 membrane polyspecificity reagent, FACS + sequencing; frameworks hold sequencing errors
Procedure, shortened: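 Using colony PCR, genes from sorted yeast display clones were amplified, then sequenced on MiSeq at 2 × 250 and filtered by CDR length. The clones had been stained with 10% biotinylated, detergent-solubilized Sf9 membrane reagent for 1 hour at 4 °C and sorted by FACS into low and high (top ~1%) gates on anti-HA and streptavidin fluorescence. Polyreactivity labels come from the gate of origin.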

| Sequence | polyreactivity (PSR sort gate) |
| --- | --- |
| QVQLVESGGGLVQAGGSLRLSCADSGFTFTLYAMGWYRQAPGKERELVAAISGIGGSTYYSDSVKGRFTISSDNAKNTVYLQMNSLKPEDTAVYYCNAVSGDSGDYWGQGTQVNVSS | low polyreactivity |
| QVQLQESGGGLVQAGGSLRLSCAASGSIFLFYTMGWYRQAPVKEREFVAGITLGTTTYNADSVKGRFTISRDNVKNTVYLQMNSLKPEDTAVYYCAVAVGHYTEFWYWGQGTQVTMSS | high polyreactivity |
| QVQLVESGGGLVQAGGSLRLSCAASGRTSVKYAMGWYRQAPGKERELVAAITYRGSSTYYADSVKGRFTISRDNAKNTVYLQMNSLKPEDTAVYYCAARPPLSGRYGYYYWGQGTQVTVSS | high polyreactivity |
| QVQLVESGGGLVQAGGSLRLSCAPSGRTFYTYAMGWYRQAPGKERELVAAITRRGGSTFYADSVKGRFTISLDNAKNPVDLQMNSLKPEDTAVYYCAAGVVWSYSLYSIYEYDYWGQGTQVTVSS | high polyreactivity |
| QVQLVESGGGLVQAGGSLRLSCAASGSTFFRYAMGWYRQAPGKEREFVAAITWSGTGTYYADSVKGRFTISRDNAKNTVYLQMNSLKPEDTAVYYCNAEPFDLWAFYYGYVYGYYHWGQGTQVTVSS | high polyreactivity |
| QVQLVESGGGLVQAGGSLRLSCAASGNTFGNYGMGWYRQAPGKEREFVAAITSRGTSTYYADSVKGRFTISRDNAKNTVYLQMNSLKPEDTAVYYCNARPRYKYPRYDYWGQGTQVTVSS | high polyreactivity |
| QVQLVESGGGLVQAGGSLRLSCAASGFIFGRKSMGWYRQAPGKERELVAAISSGDSTYYADSVKGRFTISRDNAKNTVYLQMNSLKPEDTAVYYCAARLVRQQSRPKGGYWGQGTQVTVSS | high polyreactivity |
| QVQLVESAGGLVQAGGSLRLSCAASGFTFGKNSMGWYRQAPGKERELVAAISGSGSRTYYADSVKGRFTISRDNAKNTVYLQMNSLKPEDTAVYYCAAAVTGSYASDYWGQGTQVTVSS | high polyreactivity |
| QVQLVDSGGGLVQAGGSLRLSCAASGRIFDRNAMGWYRQAPGKERDLVARIDPGDDTNYADSVKGRFTISRDNAKNTVYLQMNSQKPEDTAVYYCATDPDYVLYRTAYYEYDYWGQGTQVTVSS | low polyreactivity |
| QVQLVESGGGLVQAGGRLRISCAASGFSFFSNAMGWYRQAPGKERELVAVIDRATSTYYADSVKGRFTISRDNAKNTVYLQMNSLKPEDTAVYYCNADGEEVYDFNYFLSFKGDYWGQGTQVTVSS | low polyreactivity |
| QGHLEESGGGLVQAGGSLRISCAASGRILPYYVMGGYRPAPGKERELVATIYWSGGSTYYADSVKGRFTISRDNAKNNVNLQINSLKPEDTAVYYSNAAPSDDYDYWGQGTQVTVSS | low polyreactivity |
| QVQLVESGGGLVQAGGSLRLSCAASGRIFVHNVMGWYRQAPGKERELVAAITVSGGGTYYADSVKGRFTISRDNAKNTVYLQMNSLKQEDTAVYYCNAVPHPYDWGQGTQVTVSS | low polyreactivity |
| QVQLVESGGGLVQAGGSLRLSCAASGSIFSIYAMGWYRQAPGKERELVATIRVSGDRTYYADSVKGRFTISRDNAKNTVYLQMNSLKPEDTAVYYCAADFRGFYSWNFYYWGQGTQVTVSS | high polyreactivity |
| QVQLVESGGGLVQAGGSLRLSCAASGSTFSRYAMGWYRQAPGKERELVAAISWSGGSTYYADSVKGRFTISRDTAKNTVYLQMNSLKPEDTAVYYCAAYTYSFRANHDYWGQGTQVTVSS | high polyreactivity |
| QVQLVESGGGLVQAGGSLRLSCAASGSTIYTYAMGWYRPAPGKERELVAAISYRAGSTYYADSVKGRFTISRDNAKTSVYFQMNSLTPEDTAVYYCNVDGVVVGTKRGGYDYWGQGTQVTVSS | low polyreactivity |
| QVQLVESGGGLVQAGGSLRLSCAASGSTFGVYTMGWYRQAPGKERELVAAITKSGGSTYYADSVKGRFTISRDNAKNTVYLQMNSLKPEDTAVYYCAADATSPLTWFDYWGQGTQVTVSS | low polyreactivity |
| QVQLVESGGGLVQAGGSLRLSCAASGSTFYLYAMGLYRQAPGKERELVAAISSGGRTNYADSVKGRFTISRDNAKNTVYLQMNSLKPEDTAVYYCAARIQWPTWSLYYYWGQGTQVTVSS | high polyreactivity |
| QVQLVESGGGLVQAGGSLRLSCAASGSTLGSNTMGWYRQAPGKERELVATISRRGGSTYYADSVKGRFTISRDNAKNTVYLQMNSLKPEDTAVYYCAAPPVYKFTNGDYRSTFFHWGQGTQVTVSS | high polyreactivity |
| QVQLVESGGGLVQAGGSLRLSCAASGSTFDWYVMGWNRQAPGKETELVAAINQGSGSTYYADSVKGRFTISRDNAKNPVYLQMNSLKPEDTAVYYCAADRYGAGYLYWPYDYWGQGTQVTVSS | low polyreactivity |
| QVQLVESGGGLVQAGGSLRLSCAASGYIFGNYAMGWYRQAPGKERELVAAISKSGVTTYYADSVKGRFTISRDNAKNTVYLQMNSLKPEDTAVYYCNARSWRPINARYNEYDYWGQGTQVTVSS | low polyreactivity |
| QVQLVESGGGLVQAGGSLRLSCAASGSIFGRYGAMGWSRQSPGKERELVAAIRTSGVSTYYADSVKGRFTISRDNAKNTVYLQMNSLKPEDTAVYYCAARAGRYRWTRFDYWGQGTQVTVSS | low polyreactivity |
| QVQLVESGGGLVQAGGSLRLSCAASGSTFVGNAMGWYRQAPGKERELVATIRYSDGSTYYADSVKGRFTISRDNAKNTVYLQMNSLKPEDTAVYYCATRVKQKGPYRYSARYFYTYNYWGQGTQVTVSS | high polyreactivity |
| QVQLVESGGGLVQAGGSLRLSCAASGRTFYFNAMRWYRQAPGKERELVAGISGDGSTNYADSVKGRFTISRDNAKNTVYLQMNSLKPEDTAVYYCAARIRPGYRTWYYSWGQGTQVTVSS | low polyreactivity |
| QVQLVESVGRLVQAGGSLRLSCAASGSTITPNAMGWYRQAPGKERELVAAINWSGTSTYYADSVKGRFTISRDNEKNTVYLQMNSLKQEDTAVYSCAASYPDVDYDYWGHGTQVTVSS | high polyreactivity |
| QVQLVESGGGLVQAGGSLRLSCAASGRIFRINAMGWYRQAPGKERELVATITSGGGSTYADSVKGRFTISRDNAKNTVYLQMNSLKPEDTAVYYCAARSRIGRYTYDYWGQGTQVTVSS | high polyreactivity |
| QVQLVESGGGLVQAGGSLRLSCAASGRIFRYNAMGWYRQAPGKERELVAAITSGTGTNYADSVKGRFTISRDNAKNTVYLQMNSLKPEDTAVYYCNKDRKSYRYDYWGQGTQVTVSS | low polyreactivity |
| QVQLVESGGGLVQAGGSLRLSCAASGSTFLGYAMGWSRQAPGKERELVAAISWSGGSTYYADSVKGRFTISRDNAKNTVYLQMNRLKPEDTAVYYCNAVGYLDFEWGQGTQVTVSS | low polyreactivity |
| QVQLVESGGGLVQAGGRHRLSCAASGYIFKYYAMGWYRQAPGKERELVAAISRSGDSTYYADSVKGRFTISRDHAKNTVYLQMNSLKPEDTAVYYCNARYWHGPTGSDYWGQGTQVTVSS | high polyreactivity |
| QVPLVESGGGLVQAGGSLRLSCAASGLIFRTYTMGWYRQAPGKERELVATITRRGGTTYYADSVKGRFTLSRDNAKNTVYLQMNSLKPEDTAVYYCAKSPYYTWKYDYWGQGTQVTVSS | high polyreactivity |
| QVQLVESGGGLVQAGGSLRLSCAASGRIFYQYAMGWYRQAPGKERELVASITTSGGNTYYADSVKGRFTISRDNAKNTVYLQMNSLKPEDTAVYYCAARFNWRQWLYDYWGQGTQVTVSS | low polyreactivity |
